Laboratory results published in publication PMC7035355.

Biological target: FBW7 (UniProt Q969H0)
Experiment: co-immunoprecipitation, immunoblot
Settings: reference: wild type Mcl-1; sites S159

Mcl-1 (from UniProt Q07820) S159A
binding against the reference: weaker
